This is an account of results in article PMC4631838, “Molecular architecture of the yeast Mediator complex” (eLife, 2015).

Holding throughout (assay): cross-linking; BS3 (unlabeled, or 50:50 with 2H12-labeled BS3) on the purified native holoenzyme; 150 mM NaPO4, 150 mM KOAc, pH 7.5, 5% glycerol, 2 mM DTT; procedure A 2.7 mM reagent 120 min on ice; trypsin digest, LC-MS/MS, Protein Prospector
What all share (details): both partners purified

Assay [1] deals with T1, Med15 (Gal11), Mediator Tail module subunit (S. cerevisiae, UniProt P19659 1-1081).
T1 construct: Med15 (Gal11), S. cerevisiae, endogenous; source: endogenous, S. cerevisiae CB010 double-tagged strain; within the purified native holoenzyme
T1 sequence (looked up): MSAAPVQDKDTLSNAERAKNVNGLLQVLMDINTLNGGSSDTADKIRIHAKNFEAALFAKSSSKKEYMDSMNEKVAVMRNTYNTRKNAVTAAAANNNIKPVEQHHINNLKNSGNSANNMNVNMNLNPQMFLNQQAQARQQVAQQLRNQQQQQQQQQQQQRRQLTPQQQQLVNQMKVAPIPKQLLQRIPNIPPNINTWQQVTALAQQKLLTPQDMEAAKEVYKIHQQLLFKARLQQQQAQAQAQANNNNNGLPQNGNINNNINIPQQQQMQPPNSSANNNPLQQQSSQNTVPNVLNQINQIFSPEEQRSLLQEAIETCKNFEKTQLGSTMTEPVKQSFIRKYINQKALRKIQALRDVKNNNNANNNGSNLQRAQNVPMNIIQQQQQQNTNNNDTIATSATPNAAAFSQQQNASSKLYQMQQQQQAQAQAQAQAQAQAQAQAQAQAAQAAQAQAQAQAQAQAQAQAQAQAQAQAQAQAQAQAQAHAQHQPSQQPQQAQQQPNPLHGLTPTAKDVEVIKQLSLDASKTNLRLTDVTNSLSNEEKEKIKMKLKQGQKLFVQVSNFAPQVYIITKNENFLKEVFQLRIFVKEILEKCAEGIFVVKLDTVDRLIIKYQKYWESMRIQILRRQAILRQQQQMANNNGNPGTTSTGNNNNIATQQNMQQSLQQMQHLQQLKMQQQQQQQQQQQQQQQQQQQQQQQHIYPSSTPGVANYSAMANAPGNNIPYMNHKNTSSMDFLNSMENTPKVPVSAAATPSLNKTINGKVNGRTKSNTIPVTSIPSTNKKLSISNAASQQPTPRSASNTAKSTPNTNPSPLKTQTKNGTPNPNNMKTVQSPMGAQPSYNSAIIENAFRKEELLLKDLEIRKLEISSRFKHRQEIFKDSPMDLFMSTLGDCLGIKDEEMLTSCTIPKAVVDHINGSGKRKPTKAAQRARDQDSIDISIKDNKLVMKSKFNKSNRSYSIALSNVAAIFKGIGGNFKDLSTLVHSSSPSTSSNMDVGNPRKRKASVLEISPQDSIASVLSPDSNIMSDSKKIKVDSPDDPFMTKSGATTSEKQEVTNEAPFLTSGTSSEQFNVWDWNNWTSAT

In assay [2] the target is T2, Med5 (Nut1), Mediator Tail module subunit (S. cerevisiae, UniProt P53114 1-1132).
T2 construct: Med5 (Nut1), S. cerevisiae, endogenous; source: endogenous, S. cerevisiae CB010 double-tagged strain; within the purified native holoenzyme
T2 sequence (looked up): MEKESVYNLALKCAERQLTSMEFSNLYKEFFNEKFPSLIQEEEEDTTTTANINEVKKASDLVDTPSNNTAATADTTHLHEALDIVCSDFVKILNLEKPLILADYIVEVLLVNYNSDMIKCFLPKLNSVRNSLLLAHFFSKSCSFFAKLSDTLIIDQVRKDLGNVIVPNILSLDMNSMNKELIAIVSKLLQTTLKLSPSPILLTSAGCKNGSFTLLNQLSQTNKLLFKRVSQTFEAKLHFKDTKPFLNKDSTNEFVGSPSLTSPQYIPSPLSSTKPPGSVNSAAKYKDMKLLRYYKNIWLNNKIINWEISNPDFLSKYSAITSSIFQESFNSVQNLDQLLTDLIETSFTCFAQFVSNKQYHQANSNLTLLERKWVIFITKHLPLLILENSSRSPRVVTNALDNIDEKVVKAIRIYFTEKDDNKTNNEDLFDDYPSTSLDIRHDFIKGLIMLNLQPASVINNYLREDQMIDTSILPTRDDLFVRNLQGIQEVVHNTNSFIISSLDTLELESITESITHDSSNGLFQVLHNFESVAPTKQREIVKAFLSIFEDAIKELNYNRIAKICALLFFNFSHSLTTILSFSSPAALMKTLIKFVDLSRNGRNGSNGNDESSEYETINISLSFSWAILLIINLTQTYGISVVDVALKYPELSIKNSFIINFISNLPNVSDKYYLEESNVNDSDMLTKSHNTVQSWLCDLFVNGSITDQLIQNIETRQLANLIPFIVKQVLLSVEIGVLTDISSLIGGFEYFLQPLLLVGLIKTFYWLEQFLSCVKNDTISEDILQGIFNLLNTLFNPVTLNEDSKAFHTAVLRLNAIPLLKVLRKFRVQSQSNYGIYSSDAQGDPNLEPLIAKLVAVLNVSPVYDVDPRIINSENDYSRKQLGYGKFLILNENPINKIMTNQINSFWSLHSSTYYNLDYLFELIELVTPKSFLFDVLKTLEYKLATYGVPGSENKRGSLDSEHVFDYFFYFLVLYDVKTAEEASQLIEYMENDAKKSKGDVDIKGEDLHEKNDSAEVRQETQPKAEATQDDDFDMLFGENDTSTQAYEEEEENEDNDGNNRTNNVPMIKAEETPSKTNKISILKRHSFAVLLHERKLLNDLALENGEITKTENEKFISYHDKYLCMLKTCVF

Assay [3] deals with T3, Med17 (Srb4), Mediator Head module subunit (S. cerevisiae, UniProt P32569 1-687).
T3 construct: Med17 (Srb4), S. cerevisiae, endogenous, residues 1-687 spoken of; cross-linking was done after cleavage; also called Med17p; source: endogenous, S. cerevisiae CB010 double-tagged strain; within the purified native holoenzyme; not shown: TAP, N-terminal, cleaved
T3 sequence (looked up): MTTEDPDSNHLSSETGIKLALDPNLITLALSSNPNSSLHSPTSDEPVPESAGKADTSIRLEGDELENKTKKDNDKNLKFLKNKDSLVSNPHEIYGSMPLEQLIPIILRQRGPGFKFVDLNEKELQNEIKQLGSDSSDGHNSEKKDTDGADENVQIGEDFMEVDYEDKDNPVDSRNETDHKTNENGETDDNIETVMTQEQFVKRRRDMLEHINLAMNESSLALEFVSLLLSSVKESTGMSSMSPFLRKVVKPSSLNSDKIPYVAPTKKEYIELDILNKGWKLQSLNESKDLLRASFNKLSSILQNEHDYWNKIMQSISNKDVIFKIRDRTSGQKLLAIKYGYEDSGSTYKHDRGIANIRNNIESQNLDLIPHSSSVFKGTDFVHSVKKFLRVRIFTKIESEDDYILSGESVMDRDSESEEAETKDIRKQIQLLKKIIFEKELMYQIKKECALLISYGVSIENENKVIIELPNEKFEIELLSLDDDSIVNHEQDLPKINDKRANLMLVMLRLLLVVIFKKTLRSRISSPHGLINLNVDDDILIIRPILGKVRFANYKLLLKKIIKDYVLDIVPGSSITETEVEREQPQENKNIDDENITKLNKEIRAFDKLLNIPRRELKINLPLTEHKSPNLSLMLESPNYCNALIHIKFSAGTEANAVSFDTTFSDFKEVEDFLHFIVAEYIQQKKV

For assay [4], the target named is T4, Med14 (Rgr1), Mediator subunit (S. cerevisiae, UniProt P19263 1-1082).
T4 construct: Med14 (Rgr1), S. cerevisiae, endogenous, residues 1-1082 spoken of; source: endogenous, S. cerevisiae CB010 double-tagged strain; within the purified native holoenzyme
T4 sequence (looked up): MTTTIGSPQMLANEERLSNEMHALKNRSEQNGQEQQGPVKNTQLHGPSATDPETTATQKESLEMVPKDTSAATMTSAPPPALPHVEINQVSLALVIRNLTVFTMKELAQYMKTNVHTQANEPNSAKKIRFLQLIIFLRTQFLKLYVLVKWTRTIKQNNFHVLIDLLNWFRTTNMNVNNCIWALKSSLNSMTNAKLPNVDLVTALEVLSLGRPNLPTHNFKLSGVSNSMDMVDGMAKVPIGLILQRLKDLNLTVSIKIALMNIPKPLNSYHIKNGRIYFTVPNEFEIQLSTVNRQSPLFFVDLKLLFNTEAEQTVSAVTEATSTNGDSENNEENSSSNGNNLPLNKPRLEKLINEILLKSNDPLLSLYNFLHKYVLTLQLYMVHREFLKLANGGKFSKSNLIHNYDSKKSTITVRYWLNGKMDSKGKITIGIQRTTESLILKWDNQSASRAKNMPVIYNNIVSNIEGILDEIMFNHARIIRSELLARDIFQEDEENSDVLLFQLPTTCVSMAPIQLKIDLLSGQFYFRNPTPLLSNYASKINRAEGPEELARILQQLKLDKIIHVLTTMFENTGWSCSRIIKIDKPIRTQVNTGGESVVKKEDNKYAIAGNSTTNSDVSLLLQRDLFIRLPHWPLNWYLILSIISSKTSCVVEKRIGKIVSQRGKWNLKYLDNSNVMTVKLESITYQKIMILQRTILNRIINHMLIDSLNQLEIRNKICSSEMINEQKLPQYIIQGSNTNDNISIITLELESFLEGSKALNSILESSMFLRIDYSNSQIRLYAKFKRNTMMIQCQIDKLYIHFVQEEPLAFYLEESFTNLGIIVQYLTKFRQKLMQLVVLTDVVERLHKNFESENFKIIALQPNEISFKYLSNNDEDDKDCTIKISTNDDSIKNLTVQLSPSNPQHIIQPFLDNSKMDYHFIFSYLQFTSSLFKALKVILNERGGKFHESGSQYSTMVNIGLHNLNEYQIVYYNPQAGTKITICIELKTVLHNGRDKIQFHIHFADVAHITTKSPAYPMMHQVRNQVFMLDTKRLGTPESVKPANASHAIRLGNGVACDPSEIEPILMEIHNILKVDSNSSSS

B1: Med16 (Sin4), Mediator Tail module subunit (natural protein, S. cerevisiae, UniProt P32259 1-974, looked up)
chain: MMLGEHLMSWSKTGIIAYSDSQSSNANICLTFLESINGINWRFHTPQKYVLHPQLHEVQYQESSSTLSTHSTTTSVNGSTTAGVGSTPNFGGNSNKSPPQFFYNISSIHWNNWFSLPGDMLAVCDELGNMTMLITGQRPDRATTYEKLTMVFQDNVYKIYNHVMPLKPVDKLKPMNIERKQTRKEYNTSILEFRWLTSSKSVIVSQFCAFDSSSNTYRSRAQQVPPYGVYHPPFIKYACLAIRKNGQIDFWYQFSNSKDHKKITLQLLDTSNQRFKDLQWLEFARITPMNDDQCMLITTYSKLSKNISFYKLHVNWNLNATKPNVLNDPSLKIQFILSTTLDPTDDEGHVLKLENLHVVSKSSIEKDPSPEILVLYNVCDTSKSLVKRYRLAPTQLSAEYLVILKPDLNIDRNNSTNQIFQSRRYNLRRHSDIVLDKKVTLITSEMFDAFVSFYFEDGTIESYNQNDWKLETERLISQSQLGKFKNIIASPLSAGFNYGKLPLPPSVEWMKVSPSMCGVIVKQYNKKWPQFYAAVQKNYADPEKDSINATALAFGYVKSLHKQISAEDLTIAAKTHILRISFLDRKRAKEFITTLLKSLYSFFNISPDAPKEIMDKIITSRPLQKIMLLQLELGSCFSQENIEEMARVILYLKNVLFAFNGVARNFHFAIEQISNNSNQQQNPKLFQTIFSKQDLIHSLIPVAKWFVKFITYLTQEILILINDPTNKEYTLVHGIFGAKMSRTLILSILNEIKKVTQIVAKFPETSYPILNESSTFLKLVLSESPVDFEKFETFLVDVNNKFIALCEQQPSQEREFSLLVKAEIPPEYAKVGDFLLQYANNAVISHANAAAVYFADTSGLKISNSEFFNPEIFHLLQPLEEGLIIDTDKLPIKNRTSKSFSKLLYDDVTCDKLSVSEISDGKLKRCSRCGSVTRAGNIISSDKTIVPTSIQTKRWPTMYTRLCICSGMLFEMDG
notes: Med16 (Sin4), S. cerevisiae, endogenous; source: endogenous, S. cerevisiae CB010 double-tagged strain; within the purified native holoenzyme
As for B1, the binding result in assay [1] and in assay [2] was “binds” each time.

B2: Med21, Mediator Middle module subunit (natural protein, S. cerevisiae, UniProt P47822 1-140, looked up)
chain: MTDRLTQLQICLDQMTEQFCATLNYIDKNHGFERLTVNEPQMSDKHATVVPPEEFSNTIDELSTDIILKTRQINKLIDSLPGVDVSAEEQLRKIDMLQKKLVEVEDEKIEAIKKKEKLLRHVDSLIEDFVDGIANSKKST
notes: Med21 (printed old name Sbr7), S. cerevisiae, endogenous; also called Sbr7; source: endogenous, S. cerevisiae CB010 double-tagged strain; within the purified native holoenzyme
For B2, the binding result in assay [3] and in assay [4] was “binds” each time.
